Data on one molecule can be found in patent US20040157296A1 (HESKA, published 2004).

This experiment has as its target T1, Human CTLA4 Fc chimeric protein (human, UniProt P16410 37-162, limits assumed).
T1 construct: Bought from R&D Systems; Used at about 20 ug/ml; also called recombinant CTLA4 protein; not shown: human IgG Fc (detected with mouse anti human IgG Fc FITC)
T1 sequence (looked up): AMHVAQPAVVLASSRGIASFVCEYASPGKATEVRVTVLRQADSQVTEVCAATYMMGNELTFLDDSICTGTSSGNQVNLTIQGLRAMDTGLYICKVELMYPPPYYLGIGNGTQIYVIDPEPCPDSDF
In words: flow cytometry on L cell transfectants. On the procedure:
Recombinant cells L-pCMV-nFeB7-2₉₉₉, and L-pCMV-nFeB7-1₈₇₉, produced as described in Example 8, were tested for surface expression of feline B7-1 or B7-2 by determining if human CTLA4 will bind. Briefly, 1×10⁵ (per condition) L-pCMV-nFeB7-2₉₉₉ or L-pCMV-nFeB7-1₈₇₉ cells or, as a negative control, L cells transfected with the empty pCMV vector and the PMLBKTK plasmid (L-CMV) were incubated in phosphate buffered saline (PBS) containing 30% fetal bovine serum (FBS) for about 30 min on ice. The cells were then spun down and treated with the following:
Human CTLA4 Fc chimeric protein, available from R&D systems, Minneapolis, Minn., was used at about 20 μg/ml. Mouse anti human IgG Fe FITC, available from Sigma, was used at about 65 μg/ml. These reagents were diluted in PBS/5% FBS. All incubations were performed in about 100 μl for about 1 hr on ice with 3 washes of PBS/5% FBS in between each incubation. Cells were then analyzed on a flow cytometer (MoFlow Desk Top System, Cytomation, Ft Collins, Colo.) with the fluorescein gate set at 10¹.

B1: feline B7-2 protein expressed on L-pCMV-nFeB7-2999 recombinant L cells (PFeB7-2332) (ligand)
chain: VSSMKSQAYFNKTGELPCHFTNSQNISLDELVVFWQDQDKLVLYEIFRGKENPQNVHLKYKGRTSFDKDNWTLRLHNVQIKDKGTYHCFIHYKGPKGLVPMHQMSSDLSVLANFSQPEITVTSNRTENSGIINLTCSSIQGYPEPKEMYFQLNTENSTTKYDTVMKKSQNNVTELYNVSISLPFSVPEAHNVSVFCALKLETLEMLLSLPFNIDAQPKDKDPEQGHFLWIAAVLVMFVVFCGMVSFKTLRKRKKKQPGPSHECETIKRERKESKQTNERVPYHVPERSDEAQCINILKTASGDKSTTHF
notes: also called PFeB7-2309 (mature)
Take B1: the binding result is given as “binds”.
